In one data set the target is T1, Bt1763 (SusC) (Bacteroides thetaiotaomicron VPI-5482, UniProt Q8A6W3 26-1041).
T1 construct: Bt1763, SusC TonB-dependent transporter of the levan PUL, Bacteroides thetaiotaomicron VPI-5482; Untagged; isolated through the His6 tag on Bt1762; NTE invisible in the X-ray structures; plug domain absent from closed, empty transporters; also called SusC TonB-dependent transporter; source: B. thetaiotaomicron (Bt1762-his strain) grown on MM-fructose, outer membrane fraction in LDAO; purified …
T1 sequence (looked up): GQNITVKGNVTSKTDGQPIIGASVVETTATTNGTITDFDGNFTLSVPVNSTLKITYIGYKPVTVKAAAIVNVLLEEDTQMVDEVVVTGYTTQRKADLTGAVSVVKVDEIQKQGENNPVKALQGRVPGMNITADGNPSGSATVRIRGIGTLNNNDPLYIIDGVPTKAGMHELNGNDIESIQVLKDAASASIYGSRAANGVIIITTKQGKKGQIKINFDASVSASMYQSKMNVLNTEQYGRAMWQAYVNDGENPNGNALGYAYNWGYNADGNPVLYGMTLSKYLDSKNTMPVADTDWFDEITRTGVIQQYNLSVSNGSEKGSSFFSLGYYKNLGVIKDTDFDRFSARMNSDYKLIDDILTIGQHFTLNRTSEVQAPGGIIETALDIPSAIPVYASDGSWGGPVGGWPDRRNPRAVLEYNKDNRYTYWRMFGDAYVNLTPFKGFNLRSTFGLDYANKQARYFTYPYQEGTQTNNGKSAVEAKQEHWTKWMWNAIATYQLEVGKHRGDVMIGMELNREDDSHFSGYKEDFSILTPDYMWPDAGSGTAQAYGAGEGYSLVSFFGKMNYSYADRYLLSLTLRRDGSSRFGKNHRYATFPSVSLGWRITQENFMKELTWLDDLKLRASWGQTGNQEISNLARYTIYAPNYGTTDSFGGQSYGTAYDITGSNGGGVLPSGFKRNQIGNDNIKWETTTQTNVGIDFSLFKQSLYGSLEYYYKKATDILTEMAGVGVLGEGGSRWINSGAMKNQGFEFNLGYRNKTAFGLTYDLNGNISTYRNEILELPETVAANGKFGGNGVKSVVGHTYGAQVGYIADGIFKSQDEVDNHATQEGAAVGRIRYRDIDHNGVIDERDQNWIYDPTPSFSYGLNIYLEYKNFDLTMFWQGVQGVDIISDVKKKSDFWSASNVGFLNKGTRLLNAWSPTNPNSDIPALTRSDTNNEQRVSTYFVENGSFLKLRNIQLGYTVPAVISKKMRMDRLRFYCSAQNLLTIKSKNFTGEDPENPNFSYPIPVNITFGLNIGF
Nature of the data set: crystal structure; Bt1762-63 purified from B. theta in 10 mM Hepes/100 mM NaCl/0.4% C8E4 pH 7.5; crystallised without ligand and after incubation with 2.5 mM β2,6 FOS. As to conditions: both partners purified.

Data set [1] deals with the molecule itself. Nature of the data set: native MS; purified Bt1762-63 in 0.5% C8E4, 0.2 M ammonium acetate, pH 6.9; ligand-free and with FOS fractions.

B1: Bt1762 (SusD), C-terminal His6 tag, from the B. theta Bt1762-his strain (natural protein, Bacteroides thetaiotaomicron VPI-5482, UniProt Q8A6W4 19-570, looked up)
chain: CDDFLDRQVPQGIVTGDQIASPEYVDNLVISAYAIWATGDDINSSFSLWNYDVRSDDCYKGGSGTEDGGVFNALEISKGINTTDWNINDIWKRLYQCITRANTALQSLDQMDEKTYPLKNQRIAEMRFLRGHAHFMLKQLFKKIVIVNDENMEPDAYNELSNTTYTNDEQWQKIADDFQFAYDNLPEVQIEKGRPAQAAAAAYLAKTYLYKAYRQDGADNALTGINEEDLKQVVKYTDPLIMAKGGYGLETDYSMNFLPQYENGAESVWAIQYSINDGTYNGNLNWGMGLTTPQILGCCDFHKPSQNLVNAFKTDSQGKPLFSTYDNENYEVATDNVDPRLFHTVGMPGFPYKYNEGYIIQKNDDWSRSKGLYGYYVSLKENVDPDCDCLKKGSYWASSLNHIVIRYADVLLMRAEALIQLNDGRITDAISLINEVRSRAAGSTMLIFNYKEDYGVNFKVTPYDLKAYAQDEAMKMLKWERRVEFGMESSRFFDLVRWGEAKDVINAYYVTEASRCSIYKNAGFTENKNEYLPVPFEQISASNGNYTQNFGW
modifications: lipid anchor (lipoprotein)
notes: Chromosomally tagged, expressed natively; always isolated together with Bt1763; also called SusD lid; WT Bt1762; source: B. thetaiotaomicron (Bt1762-his strain) grown on MM-fructose, outer membrane fraction in LDAO; purified with Bt1763 (IMAC, SEC); not shown: His6, C-terminal, kept
In the case of B1, the binding result with Bt1763 (SusC) is recorded as “binds”.

B2: Bt1762-63 SusCD complex (one Bt1762 and one Bt1763), the unit that pairs into SusC2D2 (complex, Bacteroides thetaiotaomicron VPI-5482)
chain 1: CDDFLDRQVPQGIVTGDQIASPEYVDNLVISAYAIWATGDDINSSFSLWNYDVRSDDCYKGGSGTEDGGVFNALEISKGINTTDWNINDIWKRLYQCITRANTALQSLDQMDEKTYPLKNQRIAEMRFLRGHAHFMLKQLFKKIVIVNDENMEPDAYNELSNTTYTNDEQWQKIADDFQFAYDNLPEVQIEKGRPAQAAAAAYLAKTYLYKAYRQDGADNALTGINEEDLKQVVKYTDPLIMAKGGYGLETDYSMNFLPQYENGAESVWAIQYSINDGTYNGNLNWGMGLTTPQILGCCDFHKPSQNLVNAFKTDSQGKPLFSTYDNENYEVATDNVDPRLFHTVGMPGFPYKYNEGYIIQKNDDWSRSKGLYGYYVSLKENVDPDCDCLKKGSYWASSLNHIVIRYADVLLMRAEALIQLNDGRITDAISLINEVRSRAAGSTMLIFNYKEDYGVNFKVTPYDLKAYAQDEAMKMLKWERRVEFGMESSRFFDLVRWGEAKDVINAYYVTEASRCSIYKNAGFTENKNEYLPVPFEQISASNGNYTQNFGW
chain 2: GQNITVKGNVTSKTDGQPIIGASVVETTATTNGTITDFDGNFTLSVPVNSTLKITYIGYKPVTVKAAAIVNVLLEEDTQMVDEVVVTGYTTQRKADLTGAVSVVKVDEIQKQGENNPVKALQGRVPGMNITADGNPSGSATVRIRGIGTLNNNDPLYIIDGVPTKAGMHELNGNDIESIQVLKDAASASIYGSRAANGVIIITTKQGKKGQIKINFDASVSASMYQSKMNVLNTEQYGRAMWQAYVNDGENPNGNALGYAYNWGYNADGNPVLYGMTLSKYLDSKNTMPVADTDWFDEITRTGVIQQYNLSVSNGSEKGSSFFSLGYYKNLGVIKDTDFDRFSARMNSDYKLIDDILTIGQHFTLNRTSEVQAPGGIIETALDIPSAIPVYASDGSWGGPVGGWPDRRNPRAVLEYNKDNRYTYWRMFGDAYVNLTPFKGFNLRSTFGLDYANKQARYFTYPYQEGTQTNNGKSAVEAKQEHWTKWMWNAIATYQLEVGKHRGDVMIGMELNREDDSHFSGYKEDFSILTPDYMWPDAGSGTAQAYGAGEGYSLVSFFGKMNYSYADRYLLSLTLRRDGSSRFGKNHRYATFPSVSLGWRITQENFMKELTWLDDLKLRASWGQTGNQEISNLARYTIYAPNYGTTDSFGGQSYGTAYDITGSNGGGVLPSGFKRNQIGNDNIKWETTTQTNVGIDFSLFKQSLYGSLEYYYKKATDILTEMAGVGVLGEGGSRWINSGAMKNQGFEFNLGYRNKTAFGLTYDLNGNISTYRNEILELPETVAANGKFGGNGVKSVVGHTYGAQVGYIADGIFKSQDEVDNHATQEGAAVGRIRYRDIDHNGVIDERDQNWIYDPTPSFSYGLNIYLEYKNFDLTMFWQGVQGVDIISDVKKKSDFWSASNVGFLNKGTRLLNAWSPTNPNSDIPALTRSDTNNEQRVSTYFVENGSFLKLRNIQLGYTVPAVISKKMRMDRLRFYCSAQNLLTIKSKNFTGEDPENPNFSYPIPVNITFGLNIGF
modifications: lipid anchor (lipoprotein)
notes: Bt1762 (SusD), Bacteroides thetaiotaomicron VPI-5482; as the chain of m1. numbers count on: the mature protein; Bt1763 (SusC), Bacteroides thetaiotaomicron VPI-5482; as the chain of m2. numbers count on: the mature protein; Used for the self-association of the SusCD unit into the SusC2D2 dimer; also called Bt1762-Bt1763; SusCD monomer; source: B. thetaiotaomicron (Bt1762-his strain) grown on …
With B2, in data set [1], the “stoichiometry N” value turned out to be 2.

Broadly, the stoichiometry N is a count of units in the complex or per binding partner.

The values above are taken from doi:10.1101/2020.06.11.146753, “Insights into glycan import by a prominent gut symbiont” (bioRxiv, 2020).
